T1: HNRNPH1 (hnRNP H1) isoform A (UniProt P31943 P31943:1-449)
T1 sequence: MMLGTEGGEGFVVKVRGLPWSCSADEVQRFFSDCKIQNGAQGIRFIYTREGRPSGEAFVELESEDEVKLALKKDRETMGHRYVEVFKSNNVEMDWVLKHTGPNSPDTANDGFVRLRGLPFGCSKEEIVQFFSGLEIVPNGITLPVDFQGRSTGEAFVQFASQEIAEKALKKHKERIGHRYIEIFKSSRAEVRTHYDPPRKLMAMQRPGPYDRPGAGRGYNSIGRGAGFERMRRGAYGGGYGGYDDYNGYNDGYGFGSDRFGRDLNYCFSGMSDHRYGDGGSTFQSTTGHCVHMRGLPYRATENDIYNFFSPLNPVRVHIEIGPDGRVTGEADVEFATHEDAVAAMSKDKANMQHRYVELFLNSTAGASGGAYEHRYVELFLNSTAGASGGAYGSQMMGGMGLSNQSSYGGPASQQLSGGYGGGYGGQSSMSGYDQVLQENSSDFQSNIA


Columns and labels:
[1] = target: T1, HNRNPH1 (hnRNP H1) isoform A; experiment: MST; value only in figure; 20 nM RNA, 50 mM Tris pH 8.0, 300 mM KCl, 0.02% NP-40, 10% glycerol, 0.5 mg/ml heparin, 22 C; conditions: label: 3' FAM (MST)
Procedure: (§1) Microscale thermophoresis. MicroScale Thermophoresis experiments were performed according to the NanoTemper technologies protocol in a Monolith NT.115Pico (red/blue) instrument (NanoTemper Technologies). Serial dilutions of HNRNPH1 were done using a buffer containing 50 mM Tris [pH 8.0], 300 mM KCl, 0.02% NP-40, 10% Glycerol, and 0.5 mg/ml Heparin. RNA oligos were labeled with a FAM moiety at their […] (IDT). The RNA concentration was kept constant at 20 nM throughout the experiments. The RNA-protein mixture was incubated at room temperature for 15 mins before running into the MST instrument. The experiments were performed using 40% and 60% MST power and between 20%-80% LED power at 22_C. The MST traces were recorded using the standard parameters: 5 s MST power off, 30 s medium MST power on and 5 s MST power off. The reported measurement values are the combination of two effects: the fast, local environment dependent responses of the fluorophore to the temperature jump and the slower diffusive thermophoresis fluorescence changes. The data presented here are the average of 3 independent experiments. Average normalized fluorescence (%) was plotted against HNRNPH1 concentration to determine the binding constant (Kd). Ligand depletion model with one binding site was used (Using GraphPad Prism 8) to fit the binding which follows the following model: Y=Bmax*X/(Kd+X).

[2] = target: T1, HNRNPH1 (hnRNP H1) isoform A; experiment: MST; value only in figure; same buffer as INCR1; conditions: label: 3' FAM (MST); 32P (EMSA)
Procedure: as §1

Binder | binding result [1] | binding result [2]
GGGGCGGGCCGGUUGCCGGGGGGAGCUGGAGUCACGUGACGGC (ssRNA) [INCR1 RNA oligo] | binds | 
UAAGGGGUGAGGGGCAGGAGAAUGGGUAUGGAUGGAGGUAGA (ssRNA) [PD-L1 RNA oligo] |  | binds
AUACGUGGGAGUGGGGUGCUGAGCUGGGCAGGGUGAGAGUAU (ssRNA) [JAK2 RNA oligo] |  | binds

— patent publication US20240167098, “METHODS FOR PREDICTING TREATMENT OUTCOME TO CHECKPOINT INHIBITORS IN CANCER” (The Brigham and Women`s Hospital, Inc., published 2024)
